{"source": "patent US20180236141A1", "target": "integrin α2β1 on platelets (UniProt P17301)", "assay": "cell-based or functional assay"}
{"substance": "Collagen type I (ligand)", "values": [{"measurement": "platelet aggregation", "result": "> 90", "unit": "%"}]}
